Test [1] concerns the target truncated TrkC.T1 receptor. Nature of the test: co-IP; HEK293 lysates expressing TrkC.T1, TrkC-FL or TrkC-Δ-ICD; immunoprecipitated with a pan-TrkC antibody; reducing and non-reducing SDS-PAGE; blotted with two anti-PDI mAbs or anti-pan-TrkC.
In another test the target is TrkC ECD (Homo sapiens) (UniProt Q16288). The following applies: cited from earlier work.
For test [2], the target named is TrkC-FL D5 (Homo sapiens) (UniProt Q16288). The following applies: cited from earlier work.
TrkC-FL D5 (Homo sapiens), sequence (Q16288 300-413): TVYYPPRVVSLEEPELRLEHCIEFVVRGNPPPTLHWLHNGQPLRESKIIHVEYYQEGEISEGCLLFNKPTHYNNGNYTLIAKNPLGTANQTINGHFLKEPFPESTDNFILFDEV
Test [3] deals with T1, full-length TrkC (TrkC-FL) (UniProt Q16288 32-839). Nature of the test: cell-based or functional assay.
T1 sequence (Q16288 32-839): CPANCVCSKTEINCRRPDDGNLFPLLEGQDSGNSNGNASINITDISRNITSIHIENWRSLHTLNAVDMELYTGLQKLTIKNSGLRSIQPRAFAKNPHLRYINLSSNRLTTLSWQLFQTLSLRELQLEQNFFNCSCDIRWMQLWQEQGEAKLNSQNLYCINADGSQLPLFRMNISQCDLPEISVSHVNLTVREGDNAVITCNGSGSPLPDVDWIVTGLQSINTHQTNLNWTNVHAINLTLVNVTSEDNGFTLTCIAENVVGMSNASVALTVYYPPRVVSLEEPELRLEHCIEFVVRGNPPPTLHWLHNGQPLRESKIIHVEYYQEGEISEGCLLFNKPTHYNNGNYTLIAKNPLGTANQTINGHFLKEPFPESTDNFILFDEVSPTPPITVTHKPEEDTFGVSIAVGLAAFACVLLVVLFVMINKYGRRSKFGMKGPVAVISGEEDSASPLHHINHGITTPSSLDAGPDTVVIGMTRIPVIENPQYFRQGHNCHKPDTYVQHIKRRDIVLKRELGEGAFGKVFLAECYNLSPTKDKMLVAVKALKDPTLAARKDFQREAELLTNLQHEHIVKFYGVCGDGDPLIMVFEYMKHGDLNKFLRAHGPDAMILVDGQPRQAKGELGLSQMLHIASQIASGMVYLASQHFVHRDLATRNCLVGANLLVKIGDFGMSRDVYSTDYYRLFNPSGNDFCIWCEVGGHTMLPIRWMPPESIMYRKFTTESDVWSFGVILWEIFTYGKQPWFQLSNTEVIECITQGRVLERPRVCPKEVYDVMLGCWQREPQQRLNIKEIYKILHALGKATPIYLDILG
Test [4] has as its target T1, full-length TrkC (TrkC-FL). Briefly: cell-based or functional assay. This is another data set of the same source.
The target in test [5] is truncated TrkC.T1 receptor. Nature of the test: flow cytometry on cells; quantitative flow cytometry on live, non-permeabilised cells stably transfected with TrkC-FL or TrkC.T1; ligand at saturating concentration; read-out is fold-increase in mean fluorescence intensity over controls; NT-3-biotin detected with avidin-fluorescein, PTP-sigma with anti-human secondary. (In general: Flow cytometry measures light scatter and fluorescence of single cells or particles in a stream.)
truncated TrkC.T1 receptor, sequence (Q16288 32-839): as above

Test [6] deals with T1, full-length TrkC (TrkC-FL). The description is as above. To be noted: one partner purified.

TrkC ECD (Homo sapiens), sequence (Q16288 32-429): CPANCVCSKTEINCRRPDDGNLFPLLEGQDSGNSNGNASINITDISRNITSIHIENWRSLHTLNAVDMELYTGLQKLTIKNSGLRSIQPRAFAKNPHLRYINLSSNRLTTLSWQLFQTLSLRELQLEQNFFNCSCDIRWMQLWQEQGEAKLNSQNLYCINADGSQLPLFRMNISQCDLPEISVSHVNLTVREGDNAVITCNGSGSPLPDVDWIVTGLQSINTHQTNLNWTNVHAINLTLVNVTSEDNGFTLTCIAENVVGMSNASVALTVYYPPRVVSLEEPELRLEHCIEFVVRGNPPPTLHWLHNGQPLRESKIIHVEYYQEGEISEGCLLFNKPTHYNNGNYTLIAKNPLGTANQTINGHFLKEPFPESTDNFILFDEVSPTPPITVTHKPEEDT

Turning to “Protein Disulfide Isomerase (PDI) (from UniProt P07237 18-508) (enzyme)”, the fold associated PDI (PDI/TrkC ratio) against TrkC-FL and TrkC-Δ-ICD in test [1] lay within 4 to 6 fold.
What is called Kd is the free concentration of one partner at which half of the binding sites on the other are occupied at equilibrium, for simple one-to-one binding. On to PTP-sigma (from UniProt Q13332), for which the Kd with TrkC ECD (Homo sapiens) is 9.3 nM.
With NT-3 (from UniProt P20783), the Kd in test [2] is 0.05 nM.

B1: ectodomain of PTP-sigma (domain or fragment, UniProt Q13332 30-1282, looked up)
chain: EEPPRFIKEPKDQIGVSGGVASFVCQATGDPKPRVTWNKKGKKVNSQRFETIEFDESAGAVLRIQPLRTPRDENVYECVAQNSVGEITVHAKLTVLREDQLPSGFPNIDMGPQLKVVERTRTATMLCAASGNPDPEITWFKDFLPVDPSASNGRIKQLRSETFESTPIRGALQIESSEETDQGKYECVATNSAGVRYSSPANLYVRELREVRRVAPRFSILPMSHEIMPGGNVNITCVAVGSPMPYVKWMQGAEDLTPEDDMPVGRNVLELTDVKDSANYTCVAMSSLGVIEAVAQITVKSLPKAPGTPMVTENTATSITITWDSGNPDPVSYYVIEYKSKSQDGPYQIKEDITTTRYSIGGLSPNSEYEIWVSAVNSIGQGPPSESVVTRTGEQAPASAPRNVQARMLSATTMIVQWEEPVEPNGLIRGYRVYYTMEPEHPVGNWQKHNVDDSLLTTVGSLLEDETYTVRVLAFTSVGDGPLSDPIQVKTQQGVPGQPMNLRAEARSETSITLSWSPPRQESIIKYELLFREGDHGREVGRTFDPTTSYVVEDLKPNTEYAFRLAARSPQGLGAFTPVVRQRTLQSKPSAPPQDVKCVSVRSTAILVSWRPPPPETHNGALVGYSVRYRPLGSEDPEPKEVNGIPPTTTQILLEALEKWTQYRITTVAHTEVGPGPESSPVVVRTDEDVPSAPPRKVEAEALNATAIRVLWRSPAPGRQHGQIRGYQVHYVRMEGAEARGPPRIKDVMLADAQWETDDTAEYEMVITNLQPETAYSITVAAYTMKGDGARSKPKVVVTKGAVLGRPTLSVQQTPEGSLLARWEPPAGTAEDQVLGYRLQFGREDSTPLATLEFPPSEDRYTASGVHKGATYVFRLAARSRGGLGEEAAEVLSIPEDTPRGHPQILEAAGNASAGTVLLRWLPPVPAERNGAIVKYTVAVREAGALGPARETELPAAAEPGAENALTLQGLKPDTAYDLQVRAHTRRGPGPFSPPVRYRTFLRDQVSPKNFKVKMIMKTSVLLSWEFPDNYNSPTPYKIQYNGLTLDVDGRTTKKLITHLKPHTFYNFVLTNRGSSLGGLQQTVTAWTAFNLLNGKPSVAPKPDADGFIMVYLPDGQSPVPVQSYFIVMVPLRKSRGGQFLTPLGSPEDMDLEELIQDISRLQRRSLRHSRQLEVPRPYIAARFSVLPPTFHPGDQKQYGGFDNRGLEPGHRYVLFVLAVLQKSEPTFAASPFSDPFQLDNPDPQPIVDGEEG
notes: receptor-type tyrosine-protein phosphatase sigma, ectodomain; Probably a human Fc fusion, since it was detected with an anti-human secondary; also called PTP-sigma ectodomain; not shown: Fc (human)
Turning to B1, the “EC50 of bioactivity from dose-response curves (cell survival via TrkC-FL)” value in test [3] amounted to 8 nM. In test [4], the “cell survival (MTT) of TrkC-FL-expressing cells in serum-free media, efficacy relative to 2 nM NT-3 (100%)” value was 105 % of 2 nM NT-3. For the same molecule, the figures for the fold-increase in ligand binding over controls (mean fluorescence intensity) in test [5] and in test [6] were 3.7 fold and 5 fold, respectively.

B2: NT-3 (ligand, UniProt P20783 139-257, looked up)
chain: YAEHKSHRGEYSVCDSESLWVTDKSSAIDIRGHQVTVLGEIKTGNSPVKQYFYETRCKEARPVKNGCRGIDDKHWNSQCKTSQTYVRALTSENNKLVGWRWIRIDTSCVCALSRKIGRT
modifications: biotin (NT-3-biotin in the flow cytometry binding assay)
notes: neurotrophin-3, soluble growth factor; also called NT-3-biotin
On to B2, for which, in test [3], the “EC50 of bioactivity from dose-response curves (cell survival via TrkC-FL)” value is 0.2 nM. Further, the fold-increase in ligand binding over controls (mean fluorescence intensity) in test [5] was 7 fold; in test [6] it was 9 fold.
